Patent US20060211627A1 (BURNHAM INSTITUTE, published 2006)
Blank lines part the entries; values can stand above or below the molecule they belong to. Square brackets hold non-standard residues; d marks the D form. Ends that are not written are not given here. 2Nal = N[C@@H](Cc1ccc2ccccc2c1)C(=O)O; d2Nal = N[C@H](Cc1ccc2ccccc2c1)C(=O)O; 2Thi = N[C@@H](Cc1cccs1)C(=O)O; Cha = N[C@@H](CC1CCCCC1)C(=O)O; d2Thi = N[C@H](Cc1cccs1)C(=O)O; dCha = N[C@H](CC1CCCCC1)C(=O)O

Legend:
GST-BIR3RING (human) = GST-BIR3RING (human) (UniProt P98170); experiment: fluorescence polarization competition; unlabeled SMAC 0 to 50 µM against 400 nM rhodamine-SMAC and 1 µM GST-BIR3RING
GST-XIAP = GST-XIAP (human, UniProt P98170 1-497); experiment: cell-based or functional assay
Chain of GST-XIAP (P98170 whole entry): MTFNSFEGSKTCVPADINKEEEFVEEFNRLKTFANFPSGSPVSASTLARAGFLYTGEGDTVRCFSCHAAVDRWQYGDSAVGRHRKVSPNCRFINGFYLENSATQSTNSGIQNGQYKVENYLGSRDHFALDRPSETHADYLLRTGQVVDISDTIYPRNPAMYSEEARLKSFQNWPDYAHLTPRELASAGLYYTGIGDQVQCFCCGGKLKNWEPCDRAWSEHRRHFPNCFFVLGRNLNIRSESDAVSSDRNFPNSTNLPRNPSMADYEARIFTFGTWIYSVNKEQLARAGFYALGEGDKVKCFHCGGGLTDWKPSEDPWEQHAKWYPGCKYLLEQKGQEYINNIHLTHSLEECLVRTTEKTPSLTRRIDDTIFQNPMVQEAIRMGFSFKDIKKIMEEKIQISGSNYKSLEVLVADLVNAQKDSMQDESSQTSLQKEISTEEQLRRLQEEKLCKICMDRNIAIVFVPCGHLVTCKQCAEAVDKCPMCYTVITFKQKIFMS

Chain of GST-BIR3RING (human) (P98170 243-497): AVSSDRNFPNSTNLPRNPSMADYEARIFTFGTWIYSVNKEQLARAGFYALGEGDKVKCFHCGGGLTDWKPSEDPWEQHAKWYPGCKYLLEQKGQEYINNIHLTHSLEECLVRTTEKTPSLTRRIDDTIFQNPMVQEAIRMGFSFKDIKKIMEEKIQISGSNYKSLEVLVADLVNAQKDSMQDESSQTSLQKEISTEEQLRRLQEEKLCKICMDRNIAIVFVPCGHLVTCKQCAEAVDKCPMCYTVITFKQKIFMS

IC50 (GST-BIR3RING (human)): 21 µM
Molecule: unlabelled SMAC (peptide)

ratio of Vmax with and without peptide, caspase derepression assay (GST-XIAP): > 2.4
B1: TPI 1332-41 (peptide)
peptide: [Cha][d2Nal]W[2Thi]

ratio of Vmax with and without peptide, caspase derepression assay (GST-XIAP): > 2.4
B2: TPI 1352-6 (peptide)
peptide: A[dW]W[2Thi]

ratio of Vmax with and without peptide, caspase derepression assay (GST-XIAP): > 2.4
B3: TPI 1332/1352-47 (peptide)
peptide: A[dW]W[2Thi]

ratio of Vmax with and without peptide, caspase derepression assay (GST-XIAP): > 2.4
B4: TPI 1332/1352-1 (peptide)
peptide: AWW[2Thi]
modifications: also: some Trp may retain formyl protecting groups

ratio of Vmax with and without peptide, caspase derepression assay (GST-XIAP): > 2.4
B5: TPI 1352-66 (peptide)
peptide: [2Nal][dCha]W[dW]

ratio of Vmax with and without peptide, caspase derepression assay (GST-XIAP): > 2.4
B6: TPI 1352-72 (peptide)
peptide: [2Nal][d2Thi][dF][dW]
